Kd data for three molecules are collected here from paper PMC9364032, “RNA induces unique tau strains and stabilizes Alzheimer’s disease seeds”.

What all share (settings): protein: recombinant; single strand
Data set [1] deals with T1, tau 2N4R full-length monomer, WT (UniProt P10636-8 1-441). As to the kind of experiment: BLI; apparent Kd, 2:1 model; kon 2.8e4 M-1 s-1, koff 3.4e-4 s-1; mean of 3; BLI (Octet, AR2G sensors, tau immobilized), nucleic acid 0.13-41 uM; buffer, salt, pH and temperature not given in the material.
The target in data set [2] is T1, tau 2N4R full-length monomer, WT. As to the kind of experiment: BLI; apparent Kd, 2:1 model; kon 1.0e4 M-1 s-1, koff 1.4e-4 s-1; mean of 3; BLI (Octet, AR2G sensors, tau immobilized), nucleic acid 0.13-41 uM; buffer, salt, pH and temperature not given in the material.
The target is the same in data set [3]. The data set can be described thus: BLI; apparent Kd, 2:1 model; kon 1.7e3 M-1 s-1, koff 4.2e-4 s-1; mean of 3; BLI (Octet, AR2G sensors, tau immobilized), nucleic acid 0.13-41 uM; buffer, salt, pH and temperature not given in the material. In general terms: Biolayer interferometry detects binding as a change in optical thickness at a sensor tip.

T1 sequence (P10636 other isoform, or with tags, fused parts or gaps): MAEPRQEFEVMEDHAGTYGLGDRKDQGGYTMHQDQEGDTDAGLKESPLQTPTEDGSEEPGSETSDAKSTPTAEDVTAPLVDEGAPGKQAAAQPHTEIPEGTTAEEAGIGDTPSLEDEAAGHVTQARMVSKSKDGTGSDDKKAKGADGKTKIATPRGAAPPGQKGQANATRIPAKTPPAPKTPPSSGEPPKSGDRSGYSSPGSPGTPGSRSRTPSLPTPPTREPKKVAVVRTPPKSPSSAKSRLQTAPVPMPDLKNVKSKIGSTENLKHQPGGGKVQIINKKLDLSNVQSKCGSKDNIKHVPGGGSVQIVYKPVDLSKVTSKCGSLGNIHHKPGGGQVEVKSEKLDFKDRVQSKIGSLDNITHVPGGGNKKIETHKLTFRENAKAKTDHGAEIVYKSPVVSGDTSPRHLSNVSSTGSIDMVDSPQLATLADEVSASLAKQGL

In the case of GTTAAGTCCCGAACTAGATGTGACCTAACGGTAAGAGAAT (ssDNA) [ssDNA Seq1 (random 40-mer)], the Kd in data set [1] stood at 12 nM.
As to AAAAAAAAAAAAAAAAAAAAAAAAAAAAAAAAAAAAAAAA (ssRNA) [PolyA 40-mer RNA], in data set [2], the Kd came out at 20 nM.
Take UUUUUUUUUUUUUUUUUUUUUUUUUUUUUUUUUUUUUUUU (ssRNA) [PolyU 40-mer RNA]: the Kd in data set [3] came to 254 nM.
